In publication PMC5794259, “Novel ATP-cone-driven allosteric regulation of ribonucleotide reductase via the radical-generating subunit” (eLife, 2018):

T1: Leeuwenhoekiella blandensis NrdBi (wild type NrdB, radical-generating subunit of class I ribonucleotide … (Leeuwenhoekiella blandensis sp. nov. …, UniProt A3XHF9 1-427))
T1 construct: NrdBi, radical-generating subunit of the class I RNR of Leeuwenhoekiella blandensis sp. nov. strain MED217; GenBank EAQ51288; amplified from genomic DNA with primers from the start codon to the stop codon; ATP-cone 1-103, linker 104-106, core 107-398, C-terminus 399-427; pET-28a(+) construct with N-terminal hexahistidine tag and thrombin site; Oligomeric state depends on nucleotide: dimer with …
T1 sequence (looked up): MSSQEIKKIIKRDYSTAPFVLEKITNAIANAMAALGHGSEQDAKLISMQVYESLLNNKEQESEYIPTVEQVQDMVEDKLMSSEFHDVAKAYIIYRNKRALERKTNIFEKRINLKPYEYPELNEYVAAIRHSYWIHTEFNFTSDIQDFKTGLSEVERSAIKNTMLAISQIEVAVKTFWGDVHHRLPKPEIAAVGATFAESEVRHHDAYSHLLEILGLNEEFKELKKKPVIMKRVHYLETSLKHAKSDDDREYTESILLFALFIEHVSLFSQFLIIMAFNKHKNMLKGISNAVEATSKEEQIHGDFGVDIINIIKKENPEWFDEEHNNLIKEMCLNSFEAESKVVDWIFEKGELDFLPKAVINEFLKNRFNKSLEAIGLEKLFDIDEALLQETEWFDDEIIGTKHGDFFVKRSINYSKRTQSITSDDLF


What was measured:
[1] = molecular target: the molecule itself; experiment: SEC; with 100 µM dATP; Superdex 200 10/300 GL at room temperature; 50 mM Tris-HCl pH 7.6, 150 mM KCl, 10 mM MgCl2; NrdB 10 µM, NrdA at rising concentrations
[2] = molecular target: T1, Leeuwenhoekiella blandensis NrdBi (wild …); experiment: SEC; with 3 mM ATP in sample and buffer; Superdex 200 PC 3.2/30 at 7°C; 50 mM Tris-HCl pH 8, 50 mM KCl, 10% glycerol, 10 mM magnesium acetate, 2 mM DTT; proteins 20 µM each; eluted fractions analysed by SDS PAGE; conditions: both partners purified
[3] = molecular target: the molecule itself; experiment: crystal structure; NrdB 9.6 mg/ml with 20 mM MgCl2, 2 mM TCEP, 5 mM dATP; 0.2 M CaCl2, 0.1 M Tris pH 8.0, 20% PEG 600, 3% 6-aminohexanoic acid, 20°C; space group P1, one tetramer in the unit cell

Row | stoichiometry N [2] | Binder | stoichiometry N [1] | stoichiometry N [3]
1 | 1 | Leeuwenhoekiella blandensis NrdAi (NrdA, catalytic subunit of class I ribonucleotide reductase) (enzyme, UniProt A3XHF8 1-600, looked up, NrdAi, catalytic subunit of the class I RNR of Leeuwenhoekiella blandensis sp. nov. strain MED217; amplified from genomic DNA with primers from the start codon to the stop codon; pET-nrdA with N-terminal hexahistidine tag and thrombin site; no cleavage is told for NrdA (theoretical monomer mass printed as 70.6 kDa); source: E. coli BL21(DE3), pET-28a(+), purified (HisTrap Ni Sepharose, gel …)) MRENTTKLENSTETNVQHTKDNDLLKARRDALQDATEKNTDEPSFDWLTEHSRSFLAAGYLSEGVSAEERIREIADRAEEILRMPGFSDKFYKYMGEGYFSLASPVWSNFGKKRGLPISCFGSHIDDDMGNILYTQSEVGMMSKLGGGTSGYFGKIRHRGAAVKNNGYASGAVHIMQLFDKMVDVVSQGSVRRGRFSPYLPISHPDIKEFLEIGTEGNSIQQLTHGVTVDSTWMQEMIDGDTDKREVWAKVLQRRGEMGYPYIFYTDNANNGKPDVYKDKGHDIYASNLCTEIMLPSSDEWSFVCVLSSINVLHYDKWKNTDAVETMVCFLDAVLTEFIDKLEEYRDSDNRDHRQTFMFMERAYNFAKSNRALGLGVLGWHSLLQSKRHAFDSQEAYDLNSEIFREIKQRSYKASEELAEKFGEPETLKGYGRRNATLNAIAPTTSSAFILGQVSQGIEPIWSNVYVKDIAKIKTTIKNPFLEELFEEKGMNTPEVWRSVRDNDGSVQHLEFLTEQEKDVFKTYAEIDQMAIIYQAANRQNHIDQGQSINLLVHPDMPIKEINKIHITAWKLGLKSLYYQHSMNAAQKFKQKKECVSCEA | 2 | –
2 | – | Leeuwenhoekiella blandensis NrdB, thrombin-cleaved (used for crystallization) (enzyme, three additional residues (GlySerHis) left at the N-terminus from the thrombin cleavage site; NrdBi of Leeuwenhoekiella blandensis sp. nov. strain MED217; GenBank EAQ51288; Crystallized with 5 mM dATP, 20 mM MgCl2; two dATP per ATP-cone; metal site occupied by Ca2+ from the crystallization medium; also called thrombin-cleaved NrdB; source: E. coli BL21(DE3), purified (HisTrap, gel filtration), …) GSHMSSQEIKKIIKRDYSTAPFVLEKITNAIANAMAALGHGSEQDAKLISMQVYESLLNNKEQESEYIPTVEQVQDMVEDKLMSSEFHDVAKAYIIYRNKRALERKTNIFEKRINLKPYEYPELNEYVAAIRHSYWIHTEFNFTSDIQDFKTGLSEVERSAIKNTMLAISQIEVAVKTFWGDVHHRLPKPEIAAVGATFAESEVRHHDAYSHLLEILGLNEEFKELKKKPVIMKRVHYLETSLKHAKSDDDREYTESILLFALFIEHVSLFSQFLIIMAFNKHKNMLKGISNAVEATSKEEQIHGDFGVDIINIIKKENPEWFDEEHNNLIKEMCLNSFEAESKVVDWIFEKGELDFLPKAVINEFLKNRFNKSLEAIGLEKLFDIDEALLQETEWFDDEIIGTKHGDFFVKRSINYSKRTQSITSDDLF | – | 4
